Tests used:
Format in all cases: cell-based, human
[1] = test system: Cdt1 and p21 poly-ubiquitination; test: Poly-ubiquitination of Cdt1 and p21 in U2OS cells; settings: U2OS stable cells, MG132 3 h
Description: (§1) To consider this possibility, asynchronously growing control HEK293 cells and cells expressing Cdt2^WT or Cdt2^PIP-3A were treated with proteasome inhibitor MG132 and the levels of poly-ubiquitinated Cdt1 were examined. […] Cdt2^PIP-3A-expressing cells however had reduced level of both poly-ubiquitinated Cdt1 and p21 on chromatin.
(§2) Figure S7. Cdt2 PIP box is important for CRL4^Cdt2 activity in U2OS cells. (A) U2OS stable cells expressing Cdt2^WT or Cdt2^PIP-3A. U2OS cells were transfected with expression vectors for Cdt2^WT-FLAG or Cdt2^PIP-3A-FLAG, and isolated stable clones were verified by immunofluorescent analysis and Western blot analysis. Frequency of expressing cells for each construct was shown (%). (B) Poly-ubiquitination assay with U2OS stable cells. U2OS cells and Cdt2^WT-3FLAG or Cdt2^PIP-3A-3FLAG expressing stable U2OS cells were treated with MG132 for 3 h or not (−), and whole-cell extracts were prepared for Western blotting. (C) Cells were transfected with siCdt2 or control siLuc for 72 h, irradiated with UV (+, 5 J/m^2) or not (−), and collected 1h later for Western blotting. Relative levels of Cdt1 were shown, UV (−) level set as 1.0 (average of two independent experiments).

Cdt2 poly-ubiquitination = test: Poly-ubiquitination of Cdt2 itself on chromatin in HEK293 cells; settings: HEK293, MG132 3 h
Description: Figure 6. The Cdt2 PIP box is important for its recruitment to DNA damage sites and replication foci and for poly-ubiquitination activity. (A) HEK293 and stable Cdt2^WT or Cdt2^PIP-3A cells were locally UV irradiated, and stained for XPA and FLAG (Cdt2). XPA-positive spots were examined for FLAG signal, and its frequency was counted (%). More than 50 spots were examined. bar:10 μm. […] Bar: 10 μm. […] (D) Whole-cell extracts were prepared from HEK293 and stably transfected cells of Cdt2^WT or Cdt2^PIP-3A cells, separated into soluble (Sup) and chromatin-containing insoluble (Ppt) fractions, and were examined for indicated proteins. The asterisk indicates nonspecific bands. (E) HEK293 and stably transfected cells of Cdt2^WT or Cdt2^PIP-3A were treated with MG132 for 3 h. Whole-cell extracts (WCE) were prepared, separated into soluble (Sup) and insoluble (Ppt) fractions, and blotted with the indicated antibodies.
as §1

DDB1, Cul4A = test: Co-immunoprecipitation of DDB1 / Cul4A with FLAG-tagged Cdt2 constructs; settings: anti-FLAG IP, cross-linked cells
From the text: Before cell lysate preparation, cells were cross-linked.
Figure 3. […] HEK293 cells were transfected with plasmids expressing the indicated Cdt2 fused to a C-terminal FLAG tag, cross-linked, and precipitated with anti-FLAG antibodies (arrows). […] The bands in the blank lanes for Cul4A blotting correspond to the cross-reacting bands to pre-stained marker. […] HEK293 cells were transfected with the indicated plasmids and treated as in A. * indicates nonspecific bands derived from IgGs. (C) A schematic drawing of the Cdt2 domain structure highlighting the C-terminal PIP box and a sequence alignment of PIP boxes in various organisms. The alanine-changed PIP box mutant of Cdt2 was shown (PIP-3A) together with Cdt1 PIP box. (D) HEK293 cells were transfected with Cdt2^WT or PIP box mutant (Cdt2^PIP-3A) C-terminally fused to a FLAG tag, treated as in B, and Cdt2 was precipitated with anti-FLAG resin.
Control or Cdt2-FLAG expressing 293 cells that were UV irradiated (50 J/m^2), or not UV irradiated, or in the middle S phase (5 h after release from aphidicolon arrest) were fixed with 0.02% formaldehyde for 10 min, lysed using 0.1% Triton X-100-containing modified cytoskeleton (mCSK) buffer (10 mM Pipes, pH 7.9, 100 mM NaCl, 300 mM sucrose, 0.1% [vol/vol] Triton X-100, 1 mM phenylmethylsulfonyl fluoride, 10 mM β-glycerophosphate, 1 mMNa3VO4, 10 mM NaF), and then sonicated. After centrifugation (120,000g, Beckman Type 45Ti rotor, for 20 min at 4°C), the supernatants were mixed with anti-FLAG antibody-conjugated magnetic beads (M8823; Sigma-Aldrich) for 1 h at 4°C to obtain immunoprecipitates. The precipitate was washed with ice-cold 0.1% Triton X-100 containing mCSK buffer and subsequently suspended in SDS sample buffer.

PCNA mono-ubiquitination = test: Mono-ubiquitination of PCNA; settings: in comparison with Cdt2^wt-expressing cells, Fig S7B
From the text: as §2

| Molecule | poly-ubiquitination of Cdt1 and p21 [1] | poly-ubiquitination of Cdt2 on chromatin (Cdt2 poly-ubiquitination) | binding to DDB1 (and Cul4A) (DDB1, Cul4A) | mUb-PCNA level (PCNA mono-ubiquitination) |
| --- | --- | --- | --- | --- |
| Cdt2: Cdt2 tagged with GFP, transiently expressed in MCF7 cells | Increased levels | – | – | – |
| Cdt2^PIP-3A: Cdt2 with I709, Y712, and F713 all mutated to alanine (protein, UniProt Q9NZJ0 1-730, looked up, variant I709A Y712A F713A, FLAG tag, Cdt2 with I709, Y712, and F713 all mutated to alanine) Denticleless protein homolog: MLFNSVLRQPQLGVLRNGWSSQYPLQSLLTGYQCSGNDEHTSYGETGVPVPPFGCTFSSAPNMEHVLAVANEEGFVRLYNTESQSFRKKCFKEWMAHWNAVFDLAWVPGELKLVTAAGDQTAKFWDVKAGELIGTCKGHQCSLKSVAFSKFEKAVFCTGGRDGNIMVWDTRCNKKDGFYRQVNQISGAHNTSDKQTPSKPKKKQNSKGLAPSVDFQQSVTVVLFQDENTLVSAGAVDGIIKVWDLRKNYTAYRQEPIASKSFLYPGSSTRKLGYSSLILDSTGSTLFANCTDDNIYMFNMTGLKTSPVAIFNGHQNSTFYVKSSLSPDDQFLVSGSSDEAAYIWKVSTPWQPPTVLLGHSQEVTSVCWCPSDFTKIATCSDDNTLKIWRLNRGLEEKPGGDKLSTVGWASQKKKESRPGLVTVTSSQSTPAKAPRAKCNPSNSSPSSAACAPSCAGDLPLPSNTPTFSIKTSPAKARSPINRRGSVSSVSPKPPSSFKMSIRNWVTRTPSSSPPITPPASETKIMSPRKALIPVSQKSSQAEACSESRNRVKRRLDSSCLESVKQKCVKSCNCVTELDGQVENLHLDLCCLAGNQEDLSKDSLGPTKSSKIEGAGTSISEPPSPISPYASESCGTLPLPLRPCGEGSEMVGKENSSPENKNWLLAMAAKRKAENPSPRSPSSQTPNSRRQSGKKLPSPVTITPSSMRKACTAAHRKSQEDFCGPEHSTEL | – | severely reduced | without significantly affecting interaction with Cul4A and DDB1 | decreased |

— paper PMC6312923 (Life Science Alliance, 2018)
